According to US20030114646A1 (Human Genome Sciences, published 2003):

Molecular target: T1, papain (UniProt P00784 134-345)
T1 sequence (looked up): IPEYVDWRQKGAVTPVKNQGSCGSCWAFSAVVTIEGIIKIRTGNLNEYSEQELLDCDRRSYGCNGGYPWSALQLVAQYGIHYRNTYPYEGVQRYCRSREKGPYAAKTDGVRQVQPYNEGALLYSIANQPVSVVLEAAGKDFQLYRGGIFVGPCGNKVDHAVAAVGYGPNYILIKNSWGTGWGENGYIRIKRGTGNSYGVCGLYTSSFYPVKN
Test: reversible inhibition of papain activity, Ki corrected for substrate competition (Km=60 µM)

B1: human Cystatin F (recombinant, produced in a baculovirus system) (other)
chain: GPSPDTCSQDLNSRVKPGFPKTIKTNDPGVLQAARYSVEKFNNCTNDMFLFKESRITRALVQIVKGLKYMLEVEIGRTTCKKNQHLRLDDCDFQTNHTLKQTLSCYSEVWVVPWLQHFEVPVLRCH
notes: 20-145 is used here; also called recombinant Cystatin F
Ki: 1.05 nM
